In one series the test system is primary patient MM cells. Description: SCID-hu mouse model of multiple myeloma. In kind it is in vivo. The protocol: Bone marrow cells (>20% plasma cells) from myeloma patients (two patients in experiment 1 [top panel] and two different patients in experiment 2 [lower panel]) were injected into transplanted human fetal bones of SCID-hu mice. Four weeks after myeloma cell inoculation mice were divided into four groups to yield similar mean hIgG levels between groups, each group comprising mice grafted with MM cells from the different patient donors used in the experiment, and twice weekly treatment with 2 mg/kg BI-505, 1 mg/kg bortezomib or 2 mg/kg control human IgG was started (arrow). […] Graphs show mean hIgG concentrations.
Primary human MM cells depend on interactions with bone marrow stromal cells to proliferate and survive. The SCID-hu mouse harbors a human microenvironment where primary patient MM cells proliferate and induce pathology similar to human clinical MM (Yaccoby et al., 1998). MM cell derived human IgG titers were detected (>10 μg/ml) in the serum of SCID-hu mice four weeks after implantation of human MM cells to transplanted human bones, at which time treatment with antibodies (2 mg/kg) or bortezomib (1 mg/kg) began. Human IgG titers increased steadily in control treated SCID-hu mice over the course of experimentation to reach maximal concentrations of 40±5 μg/ml just before sacrifice (FIG. 18B and FIG. 19). […] Two independent experiments were performed with similar results (FIG. 18B and FIG. 19), each with MM cells from two different patient donors (n=4).
Human fetal femurs and tibias, obtained at 17 to 22 gestational weeks, were cut into fragments and implanted subcutaneously in SCID mice (SCID-hu) at age 6 to 8 weeks. Each animal was implanted with one bone fragment. Four weeks after bone implantation, 2 to 14×10^6 bone marrow cells from each patient (two patients per experiment for a total of four patients in two independent experiments, n=4), containing>20% plasma cells were injected directly into the human bone of 6 to 8 SCID-hu mice in a final volume of 30 to 40 μl of phosphate-buffered saline (PBS). One group of mice was implanted with bone only and served as “healthy” bone control. Mouse sera were serially monitored for human immunoglobulin (hIg) and the isotype levels were used as an indicator of myeloma cell growth by elisa. When hIg level reached 10 μg/mL or higher in 2 consecutive measurements after 4 weeks of injection of the tumor cells, the mice were divided into four groups to yield similar mean hIgG levels between groups, each group comprising mice grafted with MM cells from the different patient donors used in each experiment. The four treatment groups were: healthy control group (no myeloma cells injected and no drug treatment), isotype control group (myeloma cells injected and treated with isotype control IgG, 2 mg/kg, i.p., twice weekly), BI505 group (myeloma cells injected and treated with BI505, 2 mg/kg, i.p., twice weekly) and bortezomib group (myeloma cells injected and treated with 1 mg/kg, i.p., twice weekly). In some graphs hIgG levels were normalized to pretreatment (4 weeks) levels and the percent increase or decrease in hIgG levels as a function of treatment and time was analyzed. Normalized data from animals receiving the same treatment (control IgG, BI-505 or bortezomib) but grafted with MM cells from each of the four different patient donors in the two experiments were pooled and statistical difference was assessed by grouped 2-way ANOVA test and Bonferroni's posttest using GraphPad Prism 5 software. Patient myeloma cells were taken after informed consent and with the approval of the local ethics committee. For x-radiography evaluation and quantification of bone mineral density (BMD) mice in the four groups were sacrificed and the implanted human bones were taken out and fixed in 10% formalin solution. Radiographs were taken with an AXR Minishot-100 beryllium source instrument (Associated X-Ray Imaging Corp., Haverhill, Mass., USA) and 100 s exposure at 30 kV. […]

The subject of series [1] is endothelial cells (HUVEC, HMVEC). Description: HUVEC and HMVEC apoptosis assay. The conditions noted are these: resting or IFN-γ activated HUVEC/HMVEC, antibody cross-linked or not. Format: cell-based. The procedure:
(FIG. 23G) Antibody-induced endothelial cell apoptosis. HUVEC or HMVEC endothelial cells were incubated with paclitaxel (positive control), BI-505 or isotype control IgG in the presence or absence of cross-linking mAb. Apoptosis was measured by flow-cytometry following staining of cells with Annexin V-AF488.
Based on BI-505's documented ability to confer Fc:FcγR-dependent antitumor activity in malignant B cells, and a proposed general negative role for complement activation with regard to antibody tolerability (Lim et al.; van der Kolk et al., 2001), direct cytotoxic effects (PCD, ADCC, and CDC) of BI-505 in ICAM-1-expressing human peripheral blood B cells and endothelial cells were examined.
HUVEC (Cascade Biologics, pool of donors) and HMVEC (Cascade Biologics) were plated in 6-well plates (80 000-120 000 cells/well) in the presence or absence of 200 U/mL IFNγ, in order to induce ICAM-1 expression. Media was changed the day before apoptosis-induction experiments were performed and titrated concentrations of BI-505, enlimomab or isotype control antibody were added to the cells, in the presence or absence of cross-linking Fab (ab′)2 (same as the B-cell protocol). […] Necrotic cells were identified by increased fluorescence in the FL-4 channel and apoptotic cells by increased signal in the FL-1 channel on a flow cytometer (FACSCalibur, BD Bioscience).

The test system of a further series is ARH-77 tumors. Description: SCID/ARH-77 subcutaneous xenograft model. The conditions noted are these: established ARH-77 tumors.
For a further series, the target named is T1, mouse FcγRIV (Mus musculus, UniProt A0A0B4J1G0).
T1 construct: made in house; host or cells: HEK293E cells (transient)
T1 sequence (A0A0B4J1G0 21-249): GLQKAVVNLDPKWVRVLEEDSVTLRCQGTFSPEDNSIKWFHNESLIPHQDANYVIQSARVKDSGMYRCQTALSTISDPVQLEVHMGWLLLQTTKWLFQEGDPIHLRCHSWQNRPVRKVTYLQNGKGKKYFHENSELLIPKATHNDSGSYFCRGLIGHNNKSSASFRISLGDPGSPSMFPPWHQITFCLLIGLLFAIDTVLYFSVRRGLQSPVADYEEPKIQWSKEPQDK
Description: BiaCore analysis of BI-505 Fc-variant binding to FcγR. The protocol:
(FIG. 20B) BiaCore analysis of BI-505 Fc-variant antibodies binding to mouse FcγRIV.
(§1) His-tagged human FcγRIIIa and mouse FcγRIV were transiently expressed in HEK293E cells, purified using Ni-NTA chromatography, and characterized by SDS-PAGE and/or Biacore. Surface plasmon resonance (SPR) measurements were performed using a Biacore 3000 instrument. Goat F(ab)′2 α-human-F(ab)′2 fragments (Jackson Laboratories) were immobilized with a CM-5 chip using a standard amine coupling protocol. BI-505 (IgG1) and IgG4 or IgG1 297Q variants of BI-505 were diluted to 15 and 60 μg/mL respectively and added to the surface at 10 μL/min for 3 min. His-tagged human FcγRIIIa or mouse FcγRIV was pre-incubated with an α-HIS antibody (R&D Systems) at a 2:1 molar ratio before addition to the chip surface, 30 μL/min, for 1 min. After each cycle the surface was regenerated twice with glycine buffer pH 1.7.

Series [2] has as its system primary patient's MM cells. Description: Macrophage ADCP. In kind it is cell-based. The note with it: human macrophages. The procedure: (§2) Cultured macrophages were detached and plated in flat 96-well plates at 50 000 cells/well and placed in 37° C. CFSE-stained target cells were incubated with antibodies for up to 1 hr on ice. After washing, the different cell solutions were added to the culture plates containing macrophages at a ratio of 5:1 (Target cells:Macrophages). Thereafter, the culture plates were incubated at 37° C. for 1-2 hr (primary patient MM cells) or 16 hr (RPMI-8226 cells). The percentage of macrophages that had phagocytosed tumor cells (CFSE^+, CD206^+) per total analyzed macrophages was determined following gating and acquisition of 5000 CD206^+ cells/sample.
(§3) Buffy coats from healthy human donors were ordered through the local blood central at Lund University Hospital and Halmstad Hospital. Peripheral blood mononuclear cells (PBMCs) were first extracted using Ficoll-Paque PLUS (GE Healthcare Life Sciences), followed by isolation of monocytes with CD14 MicroBeads and MACS separation (Miltenyi Biotec). The monocytes were cultured in RPMI 1640 medium with 10% heat-inactivated FBS (Invitrogen) and 25 ng/mL of recombinant human M-CSF (R&D Systems) for 6-14 days, causing differentiation into macrophages. Medium with M-CSF was changed every 2-3 days upon initiation of cultures.
(§4) RPMI-8226 cells (ATCC) were continuously cultured in RPMI 1640 medium supplemented with 10 mM HEPES, 1 mM sodium pyruvate and 10% FBS. For multiple myeloma cells, freshly isolated bone marrow samples were donated by patients at Lund University Hospital and subsequently processed with Ficoll-Paque PLUS. Negative isolation of malignant plasma cells was then performed using the Plasma Cell Isolation Kit II according to the manufacturer's instructions (Miltenyi Biotec).
(§5) At least 4 h before co-culture with target cells the cultured macrophages were detached with Accutase (Sigma Aldrich), before plated in flat 96-well plates at 50 000 cells/well and placed in 37° C. […] After washing, the different cell solutions were added to the culture plates containing macrophages at a ratio of 5:1 (Target cells:Macrophages). Thereafter, the culture plates were incubated at 37° C. for 1-2 hr (primary patient MM cells) or 16 hr (RPMI-8226 cells). Next, samples were stained with APC-conjugated anti-CD206 antibody (BD Biosciences), before harvested by scraping the culture plate wells. The resulting cell solutions were then analyzed by flow cytometry, where CD206^+ macrophages were gated and acquired at 5000 cells/sample. A cut-off level identifying CFSE^+, CD206^+ double positive (phagocytic) macrophages was set for each experimental sample series. This level differed between the individual assays since the magnitude of basic (unstimulated) phagocytosis varied (different donors and time-points) among the experiments.

Another series deals with RPMI-8226 cells. Description: Macrophage ADCP. The note with it: RPMI-8226, human macrophages. In kind it is cell-based. The procedure: as §2, §3, §4, §5
The target in the next series is T2, human FcγRIIIa (Homo sapiens, UniProt P08637).
T2 construct: made in house; host or cells: HEK293E cells (transient)
Description: BiaCore analysis of BI-505 Fc-variant binding to FcγR. The procedure: (FIG. 20C) BiaCore analysis of BI-505 Fc-variant antibodies binding to human FcγRIIIa.
as §1
A general note: In SPR one partner is held on a chip, and binding of the other changes the refractive index at the surface.

The conditions of series [3]: mouse, 2 mg/kg.
Description: Blood samples collected from the vena cava were centrifuged at 2500 g for 15 min to obtain serum and the samples were stored at −20° C.
Sera were prepared from blood samples collected from the vena saphena from 3 animals in each group at different time-points during the course of in vivo experimentation. Briefly, ELISA plates were coated over night with human ICAM-1 protein. The following day, plates were incubated with the serum samples. Biotinylated goat-anti-BI-505 was used for detection of BI-505 in the serum samples. Sera were analysed by ELISA to determine BI-505 trough levels. Trough BI-505 serum concentrations were then plotted as a function of dose and were fitted using five parameter log-log curve and XLfit software (IDBS, Guildford, United Kingdom).

T2 sequence (P08637 17-254): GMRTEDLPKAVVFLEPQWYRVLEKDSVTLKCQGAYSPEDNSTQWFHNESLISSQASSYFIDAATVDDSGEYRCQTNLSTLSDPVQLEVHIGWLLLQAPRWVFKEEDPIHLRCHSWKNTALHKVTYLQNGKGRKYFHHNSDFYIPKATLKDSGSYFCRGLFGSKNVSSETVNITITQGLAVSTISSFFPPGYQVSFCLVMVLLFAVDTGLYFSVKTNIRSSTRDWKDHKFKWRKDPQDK
Description for ARH-77 tumors: For subcutaneous grafting, 1-5×10^6 tumor cells (RPMI-8226, NCI-H929, EJM, OPM-2, ARH-77, or Daudi) were subcutaneously injected at a volume of 100 μl into the left flank of anesthetized mice as described in the Supplemental Information. […] Treatment with saline, isotype control IgG, bortezomib, lenalidomide, dexamethasone, or BI-505 started on day 5 (RPMI-8226). Treatment with melphalan started on day 10. BI-505 or isotype IgG mAb was administered i.v. at 2 mg/kg/inj twice weekly for 8 weeks; bortezomib at 1 mg/kg/inj once weekly for 8 weeks; lenalidomide orally at 2 mg/kg/inj for 2 cycles consisting of 5 days of treatment and 2 days of wash out; melphalan i.v. at 3 mg/kg/inj once weekly for 8 weeks; and dexamethasone at 6 mg/kg/inj three times weekly for 2 weeks.
Mice were anaesthetized with a mixture of sevofluran and oxygen prior to myeloma cell inoculation and 1-10×10^6 myeloma cells were then subcutaneously injected in a volume of 100 μl into the left flank. Treatment with antibodies by intraperitoneal injection started either 1 day after cell inoculation (prophylactic model) or when tumors reached approximately 100 mm^3 (established model). Antibodies were administered in 200 μL of PBS. Treatment with PBS only or isotype IgG were used as controls. Macrophages or NK-cells were depleted by i.p. administration of 0.1 ml clodronate liposomes (Clophosome-A, FormuMax, Scientific Inc. Palo Alto, USA) or 20 μl anti-asialo GM1 pCI Ab (CL8955, Cedarlane Laboratories Limited, Canada) respectively, starting one day prior to antibody treatment, followed by administration twice weekly for a total of three weeks, PBS was used as control.
Tumor size was measured using a digital calliper and tumor volumes were calculated according to the formula width^2×length×0.52, as previously described (Cao et al., 1999).
Statistical analyses of tumor growth inhibition relative to control antibody treatment were carried out using Kruskal-Wallis nonparametric ANOVA with Dunn's multiple comparisons test or Mann-Whitney non-parametric analysis, as indicated in the figure legends.

On to `CC(C)C[C@H](NC(=O)[C@H](Cc1ccccc1)NC(=O)c1cnccn1)B(O)O` [bortezomib, reference compound], for which the “bone osteoclasts” value with primary patient MM cells (TRAP staining, compared to control-treated mice) is recorded as “reduced numbers of bone osteoclasts”. The “serum human IgG levels” value in the series with primary patient MM cells (antibody 2 mg/kg or bortezomib 1 mg/kg twice weekly) was “halted or reduced serum human IgG levels to below pre-treatment levels”.
Regarding `CC(=O)O[C@H]1C(=O)[C@@]2(C)[C@H]([C@H](OC(=O)c3ccccc3)[C@]3(O)C[C@H](OC(=O)[C@H](O)[C@@H](NC(=O)c4ccccc4)c4ccccc4)C(C)=C1C3(C)C)[C@]1(OC(C)=O)CO[C@@H]1C[C@@H]2O` [paclitaxel, reference compound], the “cell death in normal cells” value in series [1] was “induced significant PCD”.

B1: BI-505 IgG1 N297Q: BI-505 variant with abolished FcγR-binding (antibody, V domains shown)
VH: EVQLLESGGGLVQPGGSLRLSCAASGFTFSNAWMSWVRQAPGKGLEWVAFIWYDGSNKYYADSVKGRFTISRDNSKNTLYLQMNSLRAEDTAVYYCARYSGWYFDYWGQGTLVTVSS
VL: QSVLTQPPSASGTPGQRVTISCTGSSSNIGAGYDVHWYQQLPGTAPKLLIYDNNNRPSGVPDRFSGSKSGTSASLAISGLRSEDEADYYCQSYDSSLSAWLFGGGTKLTVLG
For the molecule B1, in the series on ARH-77 tumors, the “in vivo antitumor activity of Fc-variants, order” value is on record as “IgG1 N297Q<IgG4<IgG1”. The “binding to mouse FcγRIV, order” value with mouse FcγRIV is “IgG1 N297Q<IgG4<IgG1”. Moreover, the “ADCP” value (in series [2]; in the series on RPMI-8226 cells) was “did not confer ADCP” in each case. Further, the “binding to human FcγR” value in the series with human FcγRIIIa is given as “did not bind to human FcγR”. Further, the “In vivo serum concentrations” value in series [3] was 9.6 ± 3 µg/mL.

B2: BI-505 IgG4: BI-505 variant with reduced FcγR-binding compared to wildtype BI-505 IgG1 (antibody, V domains shown)
VH: EVQLLESGGGLVQPGGSLRLSCAASGFTFSNAWMSWVRQAPGKGLEWVAFIWYDGSNKYYADSVKGRFTISRDNSKNTLYLQMNSLRAEDTAVYYCARYSGWYFDYWGQGTLVTVSS
VL: QSVLTQPPSASGTPGQRVTISCTGSSSNIGAGYDVHWYQQLPGTAPKLLIYDNNNRPSGVPDRFSGSKSGTSASLAISGLRSEDEADYYCQSYDSSLSAWLFGGGTKLTVLG
Consider B2, for which the “in vivo antitumor activity of Fc-variants, order” value with ARH-77 tumors was “IgG1 N297Q<IgG4<IgG1”. The “binding to mouse FcγRIV, order” value in the series with mouse FcγRIV is recorded as “IgG1 N297Q<IgG4<IgG1”. Moreover, the “In vivo serum concentrations” value in series [3] was found to be 13 ± 3.1 µg/mL.

The record behind these values is patent US9803013B2, “Biological materials and uses thereof” (BioInvent International AB, priority 2005, dated 2017).
